The subject of the experiment is M. smegmatis. Description: Allelic recombination frequency, selective vs non-selective plates. In kind it is cell-based, Mycobacterium smegmatis. The method, then: A single colony of M. smegmatis was grown overnight to saturation. The next day 25 μL of dense culture was inoculated into 5 mL of fresh media in the evening and grown overnight to an OD600 of 0.9. Cells were pelleted at 4° C. by centrifugation at 3,500×g for 10 minutes and washed twice with 10 mL ice-cold 10% glycerol. Cells were resuspended in 360 μL ice-cold 10% glycerol and transferred along with 10 μL of DNA to a pre-chilled 0.2 cm electroporation cuvette.
Electrocompetent cells were electroporated with 90-mer oligos at: 1 uM for E. coli, 50 μg for L. lactis, and 10 uM for C. crescentus. 70-mer oligos were used at 1 μg for M. smegmatis. All oligos were obtained from IDT and can be found under “Oligonucleotides for genome editing” in materials and methods. For dsDNA experiments L. lactis was electroporated with 1.5 μg purified linear dsDNA. Cells were electroporated using a Bio-Rad gene pulser set to 25 μF, 200 S2, and 1.8 kV for E. coli, 2.0 kV for L. lactis, and 1.5 kV for C. crescentus and to 1000Ω and 2.5 kV for M. smegmatis. […] Colonies were counted using a custom script in Fiji, and allelic recombination frequency was calculated by dividing the number of colonies on selective plates, with the number of colonies on non-selective plates.

B1: PapRecT: SSAP from Pseudomonas aeruginosa, SEQ ID NO: 24, UniParc ID: UPI0001E9E6CB (protein, listed as Pseudomonas aeruginosa)
chain: MGTALTPLLTKFATRYEMGTTPEEVANTLKQTCFKGQVNDSQMVALLIVADQYKLNPFTKELYAFPDKNNGIVPVVGVDGWARIINENPQFDGMEFSMDQQGTECTCKIYRKDRSHAISATEYMAECKRNTQPWQSHPRRMLRHKAMIQCARLAFGFAGIYDQDEAERIVERDVTPAEQYEDVSEAICLIKDSPTMEDLQAAFSNAWKAYKTKGARDQLTAAKDQRKKELLDAPIDVEFEETGDDRAA
With B1, the “Editing efficiency” value is listed as “enabled high efficiency editing”.

The record behind these values is patent publication US20220228157A1, “GENE EDITING IN DIVERSE BACTERIA” (priority 2019, published 2022).
